B1: VPFRELKNVSVLEGLRQGRLGGPCSCHCPRPSQARLTPVDVAGPFLCLGDPGLFPPVKSSI (peptide, listed as Homo sapiens)
chain: VPFRELKNVSVLEGLRQGRLGGPCSCHCPRPSQARLTPVDVAGPFLCLGDPGLFPPVKSSI
notes: CPNE7 alternative splicing
B2: VPFRELKNQRTAQGAPGIHHAASPVAANLCDPARHAQHTRIPCGAGQVRAGRGPEAGGGVLQPQRPAPEKPGCPCRRGQPRLHTVKMWRA (peptide, listed as Homo sapiens)
chain: VPFRELKNQRTAQGAPGIHHAASPVAANLCDPARHAQHTRIPCGAGQVRAGRGPEAGGGVLQPQRPAPEKPGCPCRRGQPRLHTVKMWRA
notes: CPNE7 alternative splicing
B3: CHLFLQPQVGTPPPHTASARAPSGPPHPHESCPAGRRPARAAQTCARRQHGLPGCEEAGTARVPSLHLHLHQAALGAGRGRGWGEACAQVPPSRG (peptide, listed as Homo sapiens)
chain: CHLFLQPQVGTPPPHTASARAPSGPPHPHESCPAGRRPARAAQTCARRQHGLPGCEEAGTARVPSLHLHLHQAALGAGRGRGWGEACAQVPPSRG
notes: RECQL4 alternative splicing
B4: HYKLIQQPISLFSITDRLHKTFSQLPSVHLCSITFQWGHPPIFCSTNDICVTANFCISVTFLKPCFLLHEASASQ (peptide, listed as Homo sapiens)
chain: HYKLIQQPISLFSITDRLHKTFSQLPSVHLCSITFQWGHPPIFCSTNDICVTANFCISVTFLKPCFLLHEASASQ
B5: YAYKDFLWCFPFSLVFLQEIQICCHVSCLCCICCSTRICLGCLLELFLSRALRALHVLWNGFQLHCQ (peptide, listed as Homo sapiens)
chain: YAYKDFLWCFPFSLVFLQEIQICCHVSCLCCICCSTRICLGCLLELFLSRALRALHVLWNGFQLHCQ
B6: WGMELAASRRFSWDHHSAGGPPRVPSVRSGAAQVQPKDPLPLRTLAGCLARTAHLRPGAESLPQPQLHCT (peptide, listed as Homo sapiens)
chain: WGMELAASRRFSWDHHSAGGPPRVPSVRSGAAQVQPKDPLPLRTLAGCLARTAHLRPGAESLPQPQLHCT
notes: INCA1->CAMTA2 gene fusion
B7: LWFQSSELSPTGAPWPSRRPTWRGTTVSPRTATSSARTCCGTKWPSSQEAALGLGSGLLRFSCGTAAIR (peptide, listed as Homo sapiens)
chain: LWFQSSELSPTGAPWPSRRPTWRGTTVSPRTATSSARTCCGTKWPSSQEAALGLGSGLLRFSCGTAAIR
notes: NME4->DECR2 gene fusion
B8: QNLQNGGGSRSSATLPGRRRRRWLRRRRQPISVAPAGPPRRPNQKPNPPGGARCVIMRPTWPGTSAFT (peptide, listed as Homo sapiens)
chain: QNLQNGGGSRSSATLPGRRRRRWLRRRRQPISVAPAGPPRRPNQKPNPPGGARCVIMRPTWPGTSAFT
notes: ZFHX3 E763Sfs*61
B9: LQAAASGQGKQGVPCPWGCCAYAESPRALISGDAPSQVEREVPGPCLNTHSLSHRSPQLPGLPHPKQPSV (peptide, listed as Homo sapiens)
chain: LQAAASGQGKQGVPCPWGCCAYAESPRALISGDAPSQVEREVPGPCLNTHSLSHRSPQLPGLPHPKQPSV
notes: TONSL alternative splicing
B10: KMRAIQAEGGHGQACCGGAWGWAPGDGGPQGMLTHTLPTLGFQSAWTWRREDADRAWRTPKACASRRWSI (peptide, listed as Homo sapiens)
chain: KMRAIQAEGGHGQACCGGAWGWAPGDGGPQGMLTHTLPTLGFQSAWTWRREDADRAWRTPKACASRRWSI
notes: LRRC45 alternative splicing
B11: LLEPFRRGEPGPRGLLSGSSRGGEGPGRSIEAAPATPLPCCRKNPCRPQPSRFLPPRVLLVIILPKLDCPKLGF (peptide, listed as Homo sapiens)
chain: LLEPFRRGEPGPRGLLSGSSRGGEGPGRSIEAAPATPLPCCRKNPCRPQPSRFLPPRVLLVIILPKLDCPKLGF
notes: AMACR alternative splicing
B12: PSGRRTKRLVTLRSGCAIQCWHPRAGPVPSALPHTERPPRLVRGAADPRTVTLGRSPAVMPRAPA (peptide, listed as Homo sapiens)
chain: PSGRRTKRLVTLRSGCAIQCWHPRAGPVPSALPHTERPPRLVRGAADPRTVTLGRSPAVMPRAPA
notes: CCNF alternative splicing
B13: FVSLTAIQMASSATPWGRWPVATPTAACPRRRPSSLPTGGDSASKKPISRRAPWQPWACPGRSVNSAAPRAWCPPATTPRTQSPSRDLRPRCLSSWSS (peptide, listed as Homo sapiens)
chain: FVSLTAIQMASSATPWGRWPVATPTAACPRRRPSSLPTGGDSASKKPISRRAPWQPWACPGRSVNSAAPRAWCPPATTPRTQSPSRDLRPRCLSSWSS
notes: FASN alternative splicing
B14: PVAIKPGTGPPNNSSIHGGSKRSENSYCRDLRGQLRAICCSSYSHDRHTTEERGSRGRHVWRIRRLHTSGLPCCCHSGPHPRRLPDILRLVTSTKTDHTNTTEGTLDYL (peptide, listed as Homo sapiens)
chain: PVAIKPGTGPPNNSSIHGGSKRSENSYCRDLRGQLRAICCSSYSHDRHTTEERGSRGRHVWRIRRLHTSGLPCCCHSGPHPRRLPDILRLVTSTKTDHTNTTEGTLDYL
notes: RBM47 alternative splicing
B15: KGSVERRSVSLGHPAEGWAWAERSLQPGMTTANTGCLSFHHRGCLLPVLPKLHCGLGGLPLVRAKEIKRVQRAGESSLPVKGLLTVASAVIAVLWGRPSEVTGENEAQHD (peptide, listed as Homo sapiens)
chain: KGSVERRSVSLGHPAEGWAWAERSLQPGMTTANTGCLSFHHRGCLLPVLPKLHCGLGGLPLVRAKEIKRVQRAGESSLPVKGLLTVASAVIAVLWGRPSEVTGENEAQHD
notes: ILDR1 alternative splicing

Tested on: CD8+ and CD4+ T cells (autologous CD3+ Pan-T cells isolated from human normal PBMCs)
Assay: Exogenous autologous normal donor restimulation assay (15-mer overlapping peptide pools on CD1c+ dendritic cells, TNFα/IFNγ flow cytometry)
Type: cell-based
Conditions: 15-mer overlapping peptide pool; for Maximum Fold Change Over Background CD4+ cells / Maximum Fold Change Over Background CD8+ cells / Maximum Frequency of TNFα/IFNγ Double Positive CD4+ T cells / Maximum Frequency of TNFα/IFNγ Double Positive CD8+ T cells: Table 25; for Maximum Fold Change Over Background CD4+ cells: TNFα+IFNγ+ CD4+ T cells; for Maximum Fold Change Over Background CD4+ cells / Maximum Fold Change Over Background CD8+ cells: highest fold change over negative control across normal donors; for Maximum Fold Change Over Background CD8+ cells: TNFα+IFNγ+ CD8+ T cells; for Maximum Frequency of TNFα/IFNγ Double Positive CD4+ T cells / Maximum Frequency of TNFα/IFNγ Double Positive CD8+ T cells: highest frequency across normal donors; for Max. Fold Change over background CD4+ TNFαINFγ double positive DP / Max. Fold Change over background CD8+ TNFαINFγ double positive DP / Max. Frequency of CD4+ TNFαINFγ DP / Max. Frequency of CD8+ TNFαINFγ DP: Table 28, additional neoantigens, highest across normal donors
Outline: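 Autologous CD3+ Pan-T cells from normal donors were co-cultured 12 days with irradiated CD1c+ DCs pulsed with 15-mer overlapping neoantigen peptide pools at 2.5–10 μg/mL, with IL-15 and IL-2 support. Cells were restimulated on day 11, then TNFα/IFNγ double-positive CD8+ and CD4+ frequencies read by flow. Positive means ≥3-fold over DMSO and ≥0.01%.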

Molecule | Maximum Fold Change Over Background CD4+ cells | Maximum Fold Change Over Background CD8+ cells | Maximum Frequency of TNFα/IFNγ Double Positive CD4+ T cells | Maximum Frequency of TNFα/IFNγ Double Positive CD8+ T cells | Max. Fold Change over background CD4+ TNFαINFγ double positive DP | Max. Fold Change over background CD8+ TNFαINFγ double positive DP | Max. Frequency of CD4+ TNFαINFγ DP | Max. Frequency of CD8+ TNFαINFγ DP
CEERGAAGSLISCE (listed as Homo sapiens) [FUS6, TMPRSS2->ERG gene fusion] | 2.27 | 3.50 | 0.016 | 0.056 | – | – | – | –
MS10 (TVRAILL; listed as Homo sapiens) | – | – | – | – | 74.17 | 3.42 | 0.28 | 0.13
IARELHQFAFDLLIKSH (listed as Homo sapiens) [Neoantigen M84, AR T878A] | 35.84 | 1.39 | 0.31 | 0.03 | – | – | – | –
RTALTHNQDFSIYRLCCKRGSLCHASQARSPAFPKPVRPLPAPITRITPQLGGQSDSSQPLLTTGRPQGWQDQALRHTQQASPASCATITIPIHSAALGDHSGDPGPAWDTCPPLPLTTLIPRAPPPYGDSTARSWPSRCGPLG [MS3] | 13.61 | 36.15 | 0.09 | 0.47 | – | – | – | –
P37 (MAGGVLRRLLCREPDRDGDKGASREETVVPLHIGDPVVLPGIGQCYSALF; listed as Homo sapiens) [Neoantigen P37] | – | – | – | – | 22.78 | 2.05 | 0.09 | 0.13
B1 | 5.67 | 28.75 | 0.040 | 0.460 | – | – | – | –
B2 | 2.98 | 5.11 | 0.03 | 0.07 | – | – | – | –
B3 | 7.51 | 19.47 | 0.04 | 0.74 | – | – | – | –
B4 | 50.19 | 5.56 | 0.39 | 0.1 | – | – | – | –
B5 | 111.97 | 4.17 | 0.87 | 0.08 | – | – | – | –
B6 | 7.15 | 1.89 | 0.04 | 0.08 | – | – | – | –
B7 | 36.13 | 8.89 | 0.04 | 0.16 | – | – | – | –
B8 | 4.89 | 7.92 | 0.04 | 0.38 | – | – | – | –
B9 | – | – | – | – | 7.86 | 2.61 | 0.11 | 0.1
B10 | – | – | – | – | 9.48 | 16.25 | 0.01 | 0.26
B11 | – | – | – | – | 60.93 | 11.32 | 0.23 | 0.43
B12 | – | – | – | – | 129.8 | 1544.74 | 0.49 | 58.7
B13 | – | – | – | – | 293.94 | 4.72 | 1.48 | 0.09
B14 | – | – | – | – | 78.51 | 4.96 | 0.61 | 0.07
B15 | – | – | – | – | 184.87 | 6.85 | 0.63 | 0.1
